Marks after values point to notes of the source that are not given here.
How the values were obtained:
[1] = system: patients; details: patients with IBD; cited from earlier work
[2] = Haematological investigations; assay type: in vivo; details: mice, 100 μg/mouse
Protocol: To assess the neutralising activity of Ab-IPL-IL-17™, CD-1 mice were injected i.p. with 100 μg/mouse of Ab-IPL-IL-17™, MAB421 or secukinumab as positive controls. After 30 min, an i.p. injection of 10 μg/mouse of IL-17A, IL-17F or IL-17A/F heterodimer was administered. After 2 h blood was collected by intracardiac puncture and serum levels of (A) IL-17A, (B) IL-17F or (C) IL-17A/F heterodimer were quantified by Elisa. (C-F) For the evaluation of immunogenic effects CD-1 mice were injected i.p. with 100 μg of IgG1 isotype antibody (vehicle) or IL-17 neutralising antibodies (bimekizumab, secukinumab, MAB421 or Ab-IPL-IL-17™). In the selected time-point (2 h, 24 h, 72 h, 7 days, 14 days and 21 days) total IgG, IgG1, lymphocytes and platelets levels were determined by Elisa and haematological blood count test, respectively. Data are presented as mean±S.D. for n=5 mice per group. Statistical analysis was conducted by one or two-way ANOVA followed by Bonferroni's for multiple comparisons. *P≤0.05, **P≤0.01, ***P≤0.001 vs IL-17 group; ^#P≤0.05, ^##P≤0.01, ^###P≤0.001, ^####P≤0.0001 vs vehicle group.
Standard laboratory procedures were used for blood sampling and measurements (95). Haematological investigations, for all experimental conditions, including blood count test, leukocyte, and sidereal formula were performed on citrated and not-anticoagulated blood samples, respectively. Serological tests were performed by CELL-DYN Sapphire purchased from Abbott S.R.L. (Milan, Italy). All procedures were conducted under strictly aseptic conditions.
Standard laboratory procedures were used for blood sampling and measurements. Haematological investigations, for all experimental conditions, including blood count test, leukocyte, and sidereal formula were performed on citrated and not-anticoagulated blood samples, respectively. Serological tests were performed by CELL-DYN Sapphire purchased from Abbott S.R.L. (Milan, Italy). All procedures were conducted under strictly aseptic conditions.

Substance: Secukinumab: human anti-IL-17A monoclonal antibody
- side effect: intestinal inflammation [1]: enhanced intestinal inflammation
- GRA (Granulocytes) ([2]; 2 h): 0.22 ± 0.16 10^3/μL
- HCT (Hematocrit) ([2]; 2 h): 29.56 ± 2.26%
- HGB (Hemoglobin) ([2]; 2 h): 9.92 ± 1.78 g/dL
- MCH (Mean Corpuscular Hemoglobin) ([2]; 2 h): 17.58 ± 1.42 pg
- MCV (Mean Cell Volume) ([2]; 2 h): 61.86 ± 8.95 fL
- MHCH ([2]; 2 h): 30.60 ± 4.27 g/dL
- MID ([2]; 2 h): 0.38 ± 0.31 10^3/μL
- MPV (Mean Platelet Volume) ([2]; 2 h): 4.54 ± 0.5771 fL
- PCT (Plateletcrit) ([2]; 2 h): 0.27 ± 0.08%
- PWD (Platelet Distribution Width) ([2]; 2 h): 16.30 ± 2.15%
- RBC (Red Blood Cells) ([2]; 2 h): 5.57 ± 1.18 10^6/μL
- RDW (Red blood cells Distribution Width) ([2]; 2 h): 18.14 ± 1.87%
- WBC (White Blood Cells) ([2]; 2 h): 3.96 ± 1.19 10^3/μL
- GRA (Granulocytes) ([2]; 24 h): 0.24 ± 0.11 10^3/μL
- HCT (Hematocrit) ([2]; 24 h): 28.86 ± 1.80%
- HGB (Hemoglobin) ([2]; 24 h): 8.88 ± 1.65 g/dL
- MCH (Mean Corpuscular Hemoglobin) ([2]; 24 h): 19.10 ± 1.88 pg
- MCV (Mean Cell Volume) ([2]; 24 h): 63.60 ± 8.78 fL
- MHCH ([2]; 24 h): 31.54 ± 4.15 g/dL
- MID ([2]; 24 h): 0.44 ± 0.25 10^3/μL
- MPV (Mean Platelet Volume) ([2]; 24 h): 5.16 ± 0.8764 fL
- PCT (Plateletcrit) ([2]; 24 h): 0.25 ± 0.09%
- PWD (Platelet Distribution Width) ([2]; 24 h): 16.06 ± 2.30%
- RBC (Red Blood Cells) ([2]; 24 h): 4.48 ± 1.11 10^6/μL
- RDW (Red blood cells Distribution Width) ([2]; 24 h): 18.24 ± 1.12%
- WBC (White Blood Cells) ([2]; 24 h): 4.44 ± 1.88 10^3/μL
- GRA (Granulocytes) ([2]; 72 h): 0.30 ± 0.16 10^3/μL
- HCT (Hematocrit) ([2]; 72 h): 21.30 ± 5.47** %
- HGB (Hemoglobin) ([2]; 72 h): 6.92 ± 1.53* g/dL
- MCH (Mean Corpuscular Hemoglobin) ([2]; 72 h): 21.78 ± 4.20* pg
- MCV (Mean Cell Volume) ([2]; 72 h): 81.12 ± 8.84 fL
- MHCH ([2]; 72 h): 30.90 ± 6.72 g/dL
- MID ([2]; 72 h): 0.40 ± 0.25 10^3/μL
- MPV (Mean Platelet Volume) ([2]; 72 h): 7.80 ± 1.733**** fL
- PCT (Plateletcrit) ([2]; 72 h): 0.16 ± 0.06%
- PWD (Platelet Distribution Width) ([2]; 72 h): 18.02 ± 2.61%
- RBC (Red Blood Cells) ([2]; 72 h): 3.7 ± 1.05* 10^6/μL
- RDW (Red blood cells Distribution Width) ([2]; 72 h): 16.86 ± 3.47%
- WBC (White Blood Cells) ([2]; 72 h): 5.10 ± 2.34 10^3/μL
- GRA (Granulocytes) ([2]; 7 d): 0.24 ± 0.13 10^3/μL
- HCT (Hematocrit) ([2]; 7 d): 22.94 ± 4.68* %
- HGB (Hemoglobin) ([2]; 7 d): 7.76 ± 1.31 g/dL
- MCH (Mean Corpuscular Hemoglobin) ([2]; 7 d): 21.14 ± 4.82 pg
- MCV (Mean Cell Volume) ([2]; 7 d): 71.98 ± 8.64 fL
- MHCH ([2]; 7 d): 29.50 ± 5.03 g/dL
- MID ([2]; 7 d): 0.40 ± 0.16 10^3/μL
- MPV (Mean Platelet Volume) ([2]; 7 d): 6.58 ± 1.242* fL
- PCT (Plateletcrit) ([2]; 7 d): 0.21 ± 0.05%
- PWD (Platelet Distribution Width) ([2]; 7 d): 15.54 ± 2.91%
- RBC (Red Blood Cells) ([2]; 7 d): 4.10 ± 0.78 10^6/μL
- RDW (Red blood cells Distribution Width) ([2]; 7 d): 18.38 ± 1.90%
- WBC (White Blood Cells) ([2]; 7 d): 4.74 ± 1.30 10^3/μL
- GRA (Granulocytes) ([2]; 14 d): 0.20 ± 0.10 10^3/μL
- HCT (Hematocrit) ([2]; 14 d): 27.88 ± 2.63%
- HGB (Hemoglobin) ([2]; 14 d): 9.480 ± 1.36 g/dL
- MCH (Mean Corpuscular Hemoglobin) ([2]; 14 d): 17.50 ± 1.09 pg
- MCV (Mean Cell Volume) ([2]; 14 d): 63.46 ± 8.13 fL
- MHCH ([2]; 14 d): 29.64 ± 4.38 g/dL
- MID ([2]; 14 d): 0.38 ± 0.13 10^3/μL
- MPV (Mean Platelet Volume) ([2]; 14 d): 5.86 ± 0.5128 fL
- PCT (Plateletcrit) ([2]; 14 d): 0.25 ± 0.05%
- PWD (Platelet Distribution Width) ([2]; 14 d): 15.98 ± 2.03%
- RBC (Red Blood Cells) ([2]; 14 d): 5.98 ± 1.42 10^6/μL
- RDW (Red blood cells Distribution Width) ([2]; 14 d): 18.06 ± 2.06%
- WBC (White Blood Cells) ([2]; 14 d): 3.08 ± 0.86 10^3/μL
- GRA (Granulocytes) ([2]; 21 d): 0.20 ± 0.10 10^3/μL
- HCT (Hematocrit) ([2]; 21 d): 29.04 ± 2.30%
- HGB (Hemoglobin) ([2]; 21 d): 10.16 ± 1.52 g/dL
- MCH (Mean Corpuscular Hemoglobin) ([2]; 21 d): 17.62 ± 1.05 pg
- MCV (Mean Cell Volume) ([2]; 21 d): 62.56 ± 7.90 fL
- MHCH ([2]; 21 d): 30.34 ± 4.54 g/dL
- MID ([2]; 21 d): 0.34 ± 0.15 10^3/μL
- MPV (Mean Platelet Volume) ([2]; 21 d): 4.92 ± 0.4207 fL
- PCT (Plateletcrit) ([2]; 21 d): 0.28 ± 0.04%
- PWD (Platelet Distribution Width) ([2]; 21 d): 16.14 ± 1.80%
- RBC (Red Blood Cells) ([2]; 21 d): 6.25 ± 1.18 10^6/μL
- RDW (Red blood cells Distribution Width) ([2]; 21 d): 18.34 ± 1.33%
- WBC (White Blood Cells) ([2]; 21 d): 3.280 ± 1.47 10^3/μL

Source: patent US20260035452A1 (THE UNIVERSITY OF BIRMINGHAM, priority 2022, published 2026)
